Like-named read-outs stand apart in the source and are kept apart here. Square brackets hold non-standard residues; d marks the D form. Side chains are listed from the residue outwards. Peptide text beside a SMILES is read from it. Abu = CC[C@H](N)C(=O)O; Cy5.5 = Cyanine-5.5; Ahx = NCCCCCC(=O)O; βAla = NCCC(=O)O
Legend:
[1] = molecular target: integrin α5β1 (soluble integrin) (UniProt P08648); experiment: solid-phase binding assay, internal standard; coated fibronectin, soluble α5β1
[2] = molecular target: T1, αvβ5 (Homo sapiens, UniProt P06756+P18084); experiment: Solid-phase integrin binding assay, αvβ5 (coated Vitronectin)
T1 construct: using coated extracellular matrix proteins and soluble integrins
T1 sequence (P06756 31-1048): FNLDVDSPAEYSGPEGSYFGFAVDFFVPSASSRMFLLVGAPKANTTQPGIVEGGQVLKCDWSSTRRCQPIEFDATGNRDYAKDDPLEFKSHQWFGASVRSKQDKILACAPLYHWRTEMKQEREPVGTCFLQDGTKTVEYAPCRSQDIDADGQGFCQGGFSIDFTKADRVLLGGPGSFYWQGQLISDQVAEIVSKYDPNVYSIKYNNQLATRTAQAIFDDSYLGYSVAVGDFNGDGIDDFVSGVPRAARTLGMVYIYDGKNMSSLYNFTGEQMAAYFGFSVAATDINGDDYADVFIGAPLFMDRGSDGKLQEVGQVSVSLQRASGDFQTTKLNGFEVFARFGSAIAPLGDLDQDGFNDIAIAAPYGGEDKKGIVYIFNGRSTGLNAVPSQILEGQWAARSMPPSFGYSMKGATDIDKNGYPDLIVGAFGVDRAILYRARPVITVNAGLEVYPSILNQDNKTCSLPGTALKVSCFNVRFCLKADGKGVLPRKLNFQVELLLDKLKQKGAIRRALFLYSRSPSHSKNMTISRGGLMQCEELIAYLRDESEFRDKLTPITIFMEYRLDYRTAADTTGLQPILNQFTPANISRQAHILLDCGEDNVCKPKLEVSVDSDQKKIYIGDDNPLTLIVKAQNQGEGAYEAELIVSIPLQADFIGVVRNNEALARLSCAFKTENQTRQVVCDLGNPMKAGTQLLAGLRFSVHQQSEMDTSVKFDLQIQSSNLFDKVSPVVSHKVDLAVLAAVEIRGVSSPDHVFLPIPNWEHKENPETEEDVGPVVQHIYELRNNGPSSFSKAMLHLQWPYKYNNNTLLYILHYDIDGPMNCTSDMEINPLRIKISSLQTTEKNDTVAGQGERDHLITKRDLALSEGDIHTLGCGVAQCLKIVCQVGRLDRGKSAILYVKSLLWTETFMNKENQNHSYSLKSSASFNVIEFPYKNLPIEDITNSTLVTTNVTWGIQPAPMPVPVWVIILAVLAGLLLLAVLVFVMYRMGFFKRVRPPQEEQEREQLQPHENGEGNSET
T1 sequence (P18084 24-799): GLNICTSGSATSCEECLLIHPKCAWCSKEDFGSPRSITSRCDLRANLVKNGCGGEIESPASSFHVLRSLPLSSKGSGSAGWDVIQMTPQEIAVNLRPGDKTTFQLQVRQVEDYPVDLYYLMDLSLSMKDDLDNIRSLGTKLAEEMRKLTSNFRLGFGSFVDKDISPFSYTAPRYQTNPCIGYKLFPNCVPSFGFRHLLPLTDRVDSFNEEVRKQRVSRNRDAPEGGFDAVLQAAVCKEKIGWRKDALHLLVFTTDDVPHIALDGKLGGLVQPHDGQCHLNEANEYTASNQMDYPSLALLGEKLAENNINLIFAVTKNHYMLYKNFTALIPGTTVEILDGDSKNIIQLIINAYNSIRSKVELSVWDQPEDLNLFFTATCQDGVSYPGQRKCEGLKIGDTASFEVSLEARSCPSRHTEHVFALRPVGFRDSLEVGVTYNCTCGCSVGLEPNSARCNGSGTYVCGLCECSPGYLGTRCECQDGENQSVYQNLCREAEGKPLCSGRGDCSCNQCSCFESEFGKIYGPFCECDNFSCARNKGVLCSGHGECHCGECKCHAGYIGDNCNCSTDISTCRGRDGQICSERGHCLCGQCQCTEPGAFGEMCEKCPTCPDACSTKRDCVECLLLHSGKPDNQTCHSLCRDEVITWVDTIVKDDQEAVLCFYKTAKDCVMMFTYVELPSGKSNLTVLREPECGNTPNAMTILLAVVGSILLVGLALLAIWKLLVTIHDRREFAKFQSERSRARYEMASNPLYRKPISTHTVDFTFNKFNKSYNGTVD
Procedure: (§1) The activity and selectivity of integrin ligands were determined by a solid-phase binding assay according to the previously reported protocols using coated extracellular matrix proteins and soluble integrins: Fibronectin (Fn) for α5β1, latent activating protein (LAP) for αvβ6 and αvβ8, Vitronectin (Vn) for αvβ3 and αvβ5, Fibrinogen (Fbg) for aIIbβ3.

[3] = molecular target: T2, αvβ6 (Homo sapiens, UniProt P06756+P18564); experiment: Solid-phase integrin binding assay, αvβ6 (coated LAP, soluble integrin); parameters: using coated extracellular matrix proteins and soluble integrins
Procedure: as §1

[4] = molecular target: T3, αvβ3 (Homo sapiens, UniProt P05106+P06756); experiment: Solid-phase integrin binding assay, αvβ3 (coated Vitronectin)
T3 construct: using coated extracellular matrix proteins and soluble integrins
Procedure: as §1

[5] = molecular target: T4, αIIbβ3 (Homo sapiens, UniProt P05106+P08514); experiment: Solid-phase integrin binding assay, αIIbβ3 (coated Fibrinogen)
T4 construct: using coated extracellular matrix proteins and soluble integrins
T4 sequence (P08514 32-1039): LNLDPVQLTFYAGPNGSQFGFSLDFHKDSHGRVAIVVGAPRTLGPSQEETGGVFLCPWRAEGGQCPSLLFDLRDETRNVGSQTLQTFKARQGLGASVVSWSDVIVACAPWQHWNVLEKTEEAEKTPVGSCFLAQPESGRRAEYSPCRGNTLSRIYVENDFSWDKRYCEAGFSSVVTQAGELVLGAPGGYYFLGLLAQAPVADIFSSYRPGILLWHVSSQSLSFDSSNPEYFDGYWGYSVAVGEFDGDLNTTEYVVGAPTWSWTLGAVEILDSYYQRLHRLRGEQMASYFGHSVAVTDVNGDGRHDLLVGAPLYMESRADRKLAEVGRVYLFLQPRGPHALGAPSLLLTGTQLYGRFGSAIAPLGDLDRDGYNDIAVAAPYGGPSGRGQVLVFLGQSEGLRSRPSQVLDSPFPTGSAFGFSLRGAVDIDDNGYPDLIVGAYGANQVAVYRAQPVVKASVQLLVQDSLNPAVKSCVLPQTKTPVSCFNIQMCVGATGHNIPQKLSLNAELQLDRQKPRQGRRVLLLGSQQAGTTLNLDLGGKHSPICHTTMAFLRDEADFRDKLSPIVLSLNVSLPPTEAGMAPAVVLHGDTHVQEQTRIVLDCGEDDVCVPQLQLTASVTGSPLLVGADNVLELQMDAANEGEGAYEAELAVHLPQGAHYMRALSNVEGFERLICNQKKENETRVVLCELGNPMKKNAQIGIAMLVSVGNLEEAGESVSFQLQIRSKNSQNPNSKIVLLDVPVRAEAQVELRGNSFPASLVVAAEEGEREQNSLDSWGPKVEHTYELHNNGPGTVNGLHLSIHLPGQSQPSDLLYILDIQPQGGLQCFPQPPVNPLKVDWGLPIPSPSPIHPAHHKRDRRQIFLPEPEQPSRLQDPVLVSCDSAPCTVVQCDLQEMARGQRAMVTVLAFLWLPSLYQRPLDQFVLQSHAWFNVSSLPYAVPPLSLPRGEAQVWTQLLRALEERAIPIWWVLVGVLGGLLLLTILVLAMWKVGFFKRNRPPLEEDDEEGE
T4 sequence (P05106 27-788): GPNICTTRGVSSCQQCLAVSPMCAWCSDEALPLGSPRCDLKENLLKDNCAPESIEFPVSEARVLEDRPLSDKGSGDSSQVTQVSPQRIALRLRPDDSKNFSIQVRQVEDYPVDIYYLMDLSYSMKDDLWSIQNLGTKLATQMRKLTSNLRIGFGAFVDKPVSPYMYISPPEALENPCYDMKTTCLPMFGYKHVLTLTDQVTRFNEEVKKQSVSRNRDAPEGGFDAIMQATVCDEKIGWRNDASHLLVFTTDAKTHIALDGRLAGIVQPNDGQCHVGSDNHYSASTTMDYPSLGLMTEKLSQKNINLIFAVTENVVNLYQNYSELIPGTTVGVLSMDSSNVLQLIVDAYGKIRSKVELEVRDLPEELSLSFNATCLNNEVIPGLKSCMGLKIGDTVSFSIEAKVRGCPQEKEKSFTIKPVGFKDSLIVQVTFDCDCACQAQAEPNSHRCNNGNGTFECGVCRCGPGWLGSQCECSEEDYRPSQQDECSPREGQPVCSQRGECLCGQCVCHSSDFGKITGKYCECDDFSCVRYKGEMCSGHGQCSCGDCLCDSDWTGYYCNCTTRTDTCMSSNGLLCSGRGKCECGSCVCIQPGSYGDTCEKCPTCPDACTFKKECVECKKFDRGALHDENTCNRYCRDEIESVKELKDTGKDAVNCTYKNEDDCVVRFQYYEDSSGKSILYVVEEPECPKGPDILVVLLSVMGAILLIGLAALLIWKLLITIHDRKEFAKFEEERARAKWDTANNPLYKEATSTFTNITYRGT
Procedure: as §1

[6] = test system: human oral squamous cell carcinoma (OSCC) cell line HN (high integrin αvβ6); experiment: Cell binding / fluorescence bioimaging of Cy5.5 conjugate on HN cells; format: cell-based
Text: The human oral squamous cell carcinoma (OSCC) cell line HN were purchased from the German Collection of Microorganisms and Cell Cultures, Braunschweig, Germany (DSMZ no. ACC 417). HN cells derived from a cervical lymph node metastasis of a highly aggressive and invasive OSCC of the soft palate.^[9] As control cells, we used the human ovarian cancer cell line OVMZ6 with low integrin αvβ6 and high integrin αvβ3 expression.^[10] All cells were cultivated in Dulbecco's Modified Eagle's Medium (DMEM) (Sigma-Aldrich, St. Louis, Mo., USA), supplemented with 10% (v/v) fetal calf serum (FCS) (Gibco, LifeTechnologies™, Carlsbad, Calif., USA).
HN and OVMZ6 cells were cultivated for 24 h on fibronectin-coated microchamber slides at a density of 25×10^3/well, thereafter fixed in 2% (w/v) PFA for 15 min at r.t. and washed in PBS. The Cy5.5-conjugated compound 18-Cy5.5, dissolved in PBS, 5% (v/v) dimethyl sulfoxide (DMSO), was applied at a final concentration of […] for 1 h at r.t., followed by 3 washes in PBS. […] As control peptide served the non-binding cycl(R^betaADfK) labelled via lysine side-chain NH2 group with Cy5.5 fluorescent dye. After the incubation period, cells were washed 6 times in PBS and slides mounted. Fluorescence signal intensity was detected by the microscope Zeiss LSM 700 (Zeiss) as described above.

[7] = molecular target: T2, αvβ6; conditions: from WO 01/05810; cited from earlier work
Target sequence in this assay (P06756 31-1048): as the sequence (P06756 31-1048) above
Target sequence in this assay (P18564 22-788): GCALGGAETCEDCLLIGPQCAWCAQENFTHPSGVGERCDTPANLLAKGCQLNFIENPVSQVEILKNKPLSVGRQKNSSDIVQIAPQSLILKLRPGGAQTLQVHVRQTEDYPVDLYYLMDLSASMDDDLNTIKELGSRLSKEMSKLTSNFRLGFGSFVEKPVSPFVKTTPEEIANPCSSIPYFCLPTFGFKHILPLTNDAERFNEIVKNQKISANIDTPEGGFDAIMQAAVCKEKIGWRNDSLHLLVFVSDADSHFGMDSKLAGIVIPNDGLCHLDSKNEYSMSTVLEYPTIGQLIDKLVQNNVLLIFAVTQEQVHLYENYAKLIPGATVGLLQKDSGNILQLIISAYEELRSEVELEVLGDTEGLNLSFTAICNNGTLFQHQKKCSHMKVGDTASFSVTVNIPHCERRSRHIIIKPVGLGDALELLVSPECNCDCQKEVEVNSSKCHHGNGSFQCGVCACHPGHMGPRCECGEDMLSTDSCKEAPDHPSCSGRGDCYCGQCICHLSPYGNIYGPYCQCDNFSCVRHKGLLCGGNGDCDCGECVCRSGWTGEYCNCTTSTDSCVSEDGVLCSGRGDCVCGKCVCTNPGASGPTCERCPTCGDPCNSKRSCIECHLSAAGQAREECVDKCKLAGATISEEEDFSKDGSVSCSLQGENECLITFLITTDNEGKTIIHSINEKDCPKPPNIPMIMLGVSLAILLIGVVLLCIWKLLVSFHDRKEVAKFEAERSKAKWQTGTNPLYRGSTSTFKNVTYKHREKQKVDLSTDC

[8] = molecular target: T5, integrin αvβ8 (soluble integrin) (UniProt P06756 31-992; P26012 43-684); experiment: solid-phase binding assay, internal standard; coated LAP, soluble αvβ8
T5 construct: Only 'soluble integrins' is said

[9] = molecular target: T6, integrin αvβ6 (soluble integrin) (UniProt P06756 31-992; P18564 22-707); experiment: solid-phase binding assay, internal standard; coated LAP, soluble αvβ6
T6 construct: Only 'soluble integrins' is said

[10] = molecular target: T7, integrin αvβ3 (soluble integrin) (UniProt P06756 31-992; P05106 27-718); experiment: solid-phase binding assay, competition; coated vitronectin, soluble αvβ3
T7 construct: Only 'soluble integrins' is said

[11] = molecular target: T7, integrin αvβ3 (soluble integrin); experiment: as above; remark: listed apart in the source
[12] = molecular target: T5, integrin αvβ8 (soluble integrin); experiment: solid-phase binding assay, competition; coated LAP, soluble αvβ8
[13] = molecular target: T8, integrin α5β1 (soluble integrin) (UniProt P08648 42-995; P05556 21-728); experiment: solid-phase binding assay, competition; coated fibronectin, soluble α5β1
T8 construct: Only 'soluble integrins' is said

[14] = molecular target: T7, integrin αvβ3 (soluble integrin); experiment: ratio of IC50s αvβ6:αvβ3, printed the other way round (6.1 for αvβ6 to 1 for αvβ3)
[15] = molecular target: T6, integrin αvβ6 (soluble integrin); experiment: solid-phase binding assay, competition; coated LAP, soluble αvβ6
[16] = solid-phase binding assay, Vitronectin coated, read-out: αvβ5, IC50
[17] = solid-phase binding assay, Vitronectin coated, read-out: αvβ3, IC50
[18] = solid-phase binding assay, Fibrinogen coated, read-out: αIIbβ3, IC50

Cilengitide, c(-RGDf(NMe)V-) (peptide)
IC50 [1]: 1 to 8 nM

CC(C)C[C@@H]1NC(=O)[C@H](CC(=O)O)NC(=O)CNC(=O)[C@H](CCCNC(=N)N)NC(=O)[C@H](C)NC(=O)[C@@H]2CCCN2C(=O)[C@H]2CCCN2C(=O)[C@H](CC(C)C)NC(=O)[C@H](C)NC(=O)[C@H](C)NC1=O [Compound 1, A R G D L A A L p P] (cyclo(RGDLAAL[dP]PA))
IC50 [2]: > 1000 nM
IC50 [3]: 8.3 nM
IC50 [4]: 76.7 nM
IC50 [5]: > 1000 nM

CC(=O)NCCCC[C@H]1C(=O)N[C@@H](Cc2ccccc2)C(=O)N[C@@H](CCCNC(=N)N)C(=O)NCC(=O)N[C@@H](CC(=O)O)C(=O)N[C@@H](CC(C)C)C(=O)N[C@@H](C)C(=O)N[C@@H](Cc2ccccc2)C(=O)N2CCC[C@@H]2C(=O)N1C [Compound 23, F R G D L A F p (NMe)K^[f]]
IC50 [2, 16]: > 1000 nM
IC50 [3]: 0.3 nM
IC50 [4, 17]: 640 nM
IC50 [5, 18]: > 1000 nM

cycl(R^betaADfK)-ahx-Cy5.5 (cyclo(R[βAla]D[dF]K([Ahx-Cy5.5]))) [reference compound]
fluorescence signal intensity on cells ([6]; fixed HN cells, conjugate 10 M, 1 h at r.t.): did not result in fluorescence signal intensity

CC(C)C[C@@H]1NC(=O)[C@H](CC(=O)O)NC(=O)CNC(=O)[C@H](CCCNC(=N)N)NC(=O)[C@H](C)NC(=O)[C@@H]2CCCN2C(=O)[C@H]2CCCN2C(=O)[C@H](CCCCN)NC(=O)[C@H](C)NC1=O [Compound 11, A R G D L A K p P] (cyclo(ARGDLAK[dP]P))
IC50 [2, 16]: > 1000 nM
IC50 [3]: 1.51 nM
IC50 [4, 17]: 302 nM
IC50 [5, 18]: > 1000 nM

CC(C)C[C@@H]1NC(=O)[C@H](CC(=O)O)NC(=O)CNC(=O)[C@H](CCCNC(=N)N)NC(=O)[C@H](Cc2ccccc2)NC(=O)[C@H](CCCCN)N(C)C(=O)[C@H]2CCCN2C(=O)[C@H](Cc2ccccc2)NC(=O)[C@H](C)NC1=O [Compound 18, F R G D L A F p (NMe)K]
binding competition: fluorescence signal intensity of 18-Cy5.5 after pre-incubation ([6]; 10-fold molar excess of unlabeled analogue for 1 h at r.t. prior to 18-Cy5.5): strong reduction in fluorescence signal intensity

cyclo(RTDLdALR-Abu-Abu) (cyclo(RTDL[dD]ALR[Abu][Abu]); SMILES CC[C@@H]1NC(=O)[C@H](CCCNC(=N)N)NC(=O)[C@H](CC(C)C)NC(=O)[C@H](C)NC(=O)[C@@H](CC(=O)O)NC(=O)[C@H](CC(C)C)NC(=O)[C@H](CC(=O)O)NC(=O)[C@H]([C@@H](C)O)NC(=O)[C@H](CCCNC(=N)N)NC(=O)[C@H](CC)NC1=O)
IC50 [7]: ~1 nM

B1: linear peptide RTDLDSLRT (peptide)
peptide: RTDLDSLRT
notes: also called control peptide (plasma stability)
IC50 [8]: 8 to 100 nM
IC50 [9]: 6 to 33 nM

B2: Compound 4, cyclic peptide A R G D L A L p P (peptide)
peptide: cyclo(ARGDLAL[dP]P)
SMILES: CC(C)C[C@@H]1NC(=O)[C@H](CC(=O)O)NC(=O)CNC(=O)[C@H](CCCNC(=N)N)NC(=O)[C@H](C)NC(=O)[C@@H]2CCCN2C(=O)[C@H]2CCCN2C(=O)[C@H](CC(C)C)NC(=O)[C@H](C)NC1=O
notes: also called Cpd
IC50 [10]: 106 nM
IC50 [11]: 106 nM
IC50 [12]: 42.9 nM
IC50 [13]: 266 nM

B3: Compound 8, cyclic peptide A R G D L D L p P (peptide)
peptide: cyclo(ARGDLDL[dP]P)
SMILES: CC(C)C[C@@H]1NC(=O)[C@H](CC(=O)O)NC(=O)CNC(=O)[C@H](CCCNC(=N)N)NC(=O)[C@H](C)NC(=O)[C@@H]2CCCN2C(=O)[C@H]2CCCN2C(=O)[C@H](CC(C)C)NC(=O)[C@H](CC(=O)O)NC1=O
notes: Comparative compound (*)
Ratio [14]: 6.1
IC50 [11]: 2.4 nM
IC50 [15]: 14.7 nM

B4: Compound 10, cyclic peptide A R G D L A F p P (peptide)
peptide: cyclo(ARGDLAF[dP]P)
SMILES: CC(C)C[C@@H]1NC(=O)[C@H](CC(=O)O)NC(=O)CNC(=O)[C@H](CCCNC(=N)N)NC(=O)[C@H](C)NC(=O)[C@@H]2CCCN2C(=O)[C@H]2CCCN2C(=O)[C@H](Cc2ccccc2)NC(=O)[C@H](C)NC1=O
notes: also called Cpd; 10
IC50 [10]: 104 nM
IC50 [11]: 104 nM
IC50 [12]: 10.4 nM
IC50 [13]: 38.4 nM

B5: Compound 11, cyclic peptide A R G D L A K p P (peptide)
peptide: cyclo(ARGDLAK[dP]P)
SMILES: CC(C)C[C@@H]1NC(=O)[C@H](CC(=O)O)NC(=O)CNC(=O)[C@H](CCCNC(=N)N)NC(=O)[C@H](C)NC(=O)[C@@H]2CCCN2C(=O)[C@H]2CCCN2C(=O)[C@H](CCCCN)NC(=O)[C@H](C)NC1=O
notes: also called Cpd; 11
IC50 [10]: 302 nM
IC50 [11]: 302 nM
IC50 [12]: 49.3 nM
IC50 [13]: 831 nM

B6: Compound 1, cyclic peptide A R G D L A A L p P (peptide)
peptide: cyclo(ARGDLAAL[dP]P)
notes: Comparative compound (*); also called Cpd
IC50 [10]: 76.7 nM
IC50 [11]: 76.7 nM
IC50 [12]: 115 nM
IC50 [13]: 454 nM
